{
  "source": "paper PMC4132707",
  "about": "“A dimeric state for PRC2” (Nucleic Acids Research, 2014)",
  "binders": {"B1": {"name": "EZH2, untagged (cleavable MBP tag removed) (natural protein)", "chain": "not shown", "notes": "forward primer starts at codon 2 (GQTGKKS), reverse primer holds the stop codon; Present as a subunit of the co-purified PRC2 complex, never isolated alone; also called untagged EZH2; source: Sf9, baculovirus, co-expressed and co-purified with the other PRC2 subunits (amylose resin, PreScission cleavage, SEC); not shown: His6, N-terminal, cleaved; MBP, N-terminal, cleaved"}},
  "molecular_target": "T1, MBP-EZH2 (uncleavable MBP fusion, three-alanine linker) (human, UniProt Q15910-2 2-751)",
  "T1 construct": "forward primer starts at codon 2 after the three alanines, reverse primer holds the stop codon; A short linker of three alanine residues connects MBP and EZH2; no PreScission site between them; Present as a subunit of the co-purified PRC2 5m complex; also called tagged EZH2; MBP-tagged EZH2; source: Sf9, baculovirus, co-expressed and co-purified with the other PRC2 subunits (amylose resin, …)",
  "T1 sequence (Q15910 other isoform, or with tags, fused parts or gaps)": "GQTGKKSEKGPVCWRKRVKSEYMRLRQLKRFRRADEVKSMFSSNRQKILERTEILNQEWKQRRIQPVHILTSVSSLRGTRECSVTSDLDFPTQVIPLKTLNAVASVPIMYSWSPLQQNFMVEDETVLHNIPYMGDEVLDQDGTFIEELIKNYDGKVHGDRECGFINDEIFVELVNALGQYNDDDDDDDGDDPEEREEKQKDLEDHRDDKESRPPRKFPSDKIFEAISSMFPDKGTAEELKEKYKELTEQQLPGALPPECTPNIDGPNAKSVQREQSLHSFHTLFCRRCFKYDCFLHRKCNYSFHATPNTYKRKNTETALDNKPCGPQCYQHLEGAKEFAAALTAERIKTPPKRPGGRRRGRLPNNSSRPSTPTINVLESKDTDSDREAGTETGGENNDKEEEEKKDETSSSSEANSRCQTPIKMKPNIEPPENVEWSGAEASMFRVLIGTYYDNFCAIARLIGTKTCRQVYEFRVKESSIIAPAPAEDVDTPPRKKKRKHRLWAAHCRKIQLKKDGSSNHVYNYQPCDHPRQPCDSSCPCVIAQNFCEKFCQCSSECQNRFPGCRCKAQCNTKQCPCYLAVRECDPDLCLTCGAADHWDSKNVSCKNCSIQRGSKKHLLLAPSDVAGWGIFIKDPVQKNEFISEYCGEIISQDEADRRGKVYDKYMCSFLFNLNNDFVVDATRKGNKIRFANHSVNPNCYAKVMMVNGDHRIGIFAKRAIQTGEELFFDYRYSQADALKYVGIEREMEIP",
  "assay": "pull-down; called co-immunoprecipitation by the paper; 0.1 mg purified nucleic acid-free PRC2 5m co-expressed with both MBP-EZH2 (uncleavable) and untagged EZH2, bound to amylose beads 30 min at 4°C in 10 mM Tris-HCl pH 7.5, 250 mM NaCl, 1 mM TCEP, washed twice, eluted with 20 mM maltose; immunoblotting (semi-quantitative for EZH2)",
  "conditions": "both partners purified",
  "data": [
    {"binder": "B1", "values": [
      {"measurement": "ratio of tagged to untagged EZH2 in the MBP pull down", "result": "~3 tagged:untagged"}
    ]}
  ]
}
